These results are taken from patent publication US7897729.

This assay addresses FcγRIII (CD16) (human) (UniProt P08637). Nature of the assay: cell-based or functional assay.

FcγRIII (CD16) (human), sequence (P08637 17-254): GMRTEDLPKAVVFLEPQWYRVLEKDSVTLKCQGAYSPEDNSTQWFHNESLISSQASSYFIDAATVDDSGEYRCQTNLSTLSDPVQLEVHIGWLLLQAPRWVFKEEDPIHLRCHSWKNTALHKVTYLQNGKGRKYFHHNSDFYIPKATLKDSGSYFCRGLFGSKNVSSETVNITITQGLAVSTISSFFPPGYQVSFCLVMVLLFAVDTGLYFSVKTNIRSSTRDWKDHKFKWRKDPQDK

With anti-CD16 mAb 3G8 (antibody), the IFN-γ secretion from PBMC, immobilized anti-CD16 mAb (10 µg/ml) + IL-2 is 9.85 ng/mL; the TNF-α secretion from PBMC, immobilized anti-CD16 mAb (10 µg/ml) + IL-2 worked out at 3.32 ng/mL; the proliferative response of PBMC ([3H]thymidine), IL-2 and immobilized anti-CD16 mAb was 15500 CPM; the proliferative response of PBMC ([3H]thymidine), immobilized anti-CD16 mAb alone, no IL-2 amounted to 592 CPM.
heat aggregated IgG (AIG): the IFN-γ secretion from PBMC, aggregated IgG (40 µg/ml) + IL-2 amounted to 13 ng/mL; the TNF-α secretion from PBMC, aggregated IgG (40 µg/ml) + IL-2 is 2.46 ng/mL; the fold induction of PBMC proliferation over IL-2, 125 µg/mL of AIG turned out to be 16 fold; the proliferative response of PBMC, 125 µg/mL of AIG and IL-2 was 17400 CPM.
